Reference: paper PMC9404054, “Efficient screening for 8-oxoguanine DNA glycosylase binding aptamers via capillary electrophoresis”

B1: OGG1-Apt 2 (ssDNA)
DNA: AGCAGCACAGAGGTCAGATGTTGATGGCAGGTATTGCTAGGTCTACATGGAACTTGTTAACCTATGCGTGCTACCGTGAA
B2: OGG1-Apt 4 (ssDNA)
DNA: AGCAGCACAGAGGTCAGATGGCGAAGCGTACCGGCTACCCAGTGACAGTCGCCGTGGGTCCCTATGCGTGCTACCGTGAA
B3: OGG1-Apt 6 (ssDNA)
DNA: AGCAGCACAGAGGTCAGATGCCGATCGTTGTTCCCGATCAAGATGGGGAATCTCAGTCGCCCTATGCGTGCTACCGTGAA
B4: OGG1-Apt 1 (ssDNA)
DNA: AGCAGCACAGAGGTCAGATGGCCACATTAGTCTCACCACTACCTGCGTACCTACCGCCGCCCTATGCGTGCTACCGTGAA

Tests used:
[1] = molecular target: T1, 8-oxoguanine DNA glycosylase (OGG1) (UniProt O15527 1-345); experiment: capillary electrophoresis (NECEEM); 0.2 uM aptamer, 5.0 uM OGG1, n=3; CE in fused-silica capillary (75 um i.d. x 50.2 cm, 40 cm effective); borate reagents listed; 15 min incubation stated for the selection; buffer composition, pH and temperature not in the material; conditions: protein: commercial; (library is FAM labelled)
T1 sequence (O15527 whole entry, the tested form may be a part): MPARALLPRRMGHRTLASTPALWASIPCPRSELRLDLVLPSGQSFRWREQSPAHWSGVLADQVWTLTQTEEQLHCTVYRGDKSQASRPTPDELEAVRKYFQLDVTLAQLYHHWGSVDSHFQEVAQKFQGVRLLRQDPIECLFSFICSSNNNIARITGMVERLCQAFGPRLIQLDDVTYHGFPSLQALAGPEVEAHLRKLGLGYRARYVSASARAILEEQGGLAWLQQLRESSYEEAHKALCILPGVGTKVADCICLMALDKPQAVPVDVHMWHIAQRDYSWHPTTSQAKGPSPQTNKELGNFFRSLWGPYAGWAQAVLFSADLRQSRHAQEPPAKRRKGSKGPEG

[2] = molecular target: T1, 8-oxoguanine DNA glycosylase (OGG1); experiment: capillary electrophoresis (NECEEM); 0.2 uM aptamer, 5.0 uM OGG1, n=3; abstract gives range 1.71-2.64 uM for the top three candidates; CE in fused-silica capillary (75 um i.d. x 50.2 cm, 40 cm effective); borate reagents listed; 15 min incubation stated for the selection; buffer composition, pH and temperature not in the material; conditions: protein: commercial; (library is FAM labelled)

Row | Binder | Kd [1] [nM] | Kd [2] [nM]
1 | B1 | 2600 ± 200 | 
2 | B2 |  | 2800 ± 200
3 | B3 | 1800 ± 100 | 
4 | B4 | 1700 ± 100 | 
